From paper PMC314469, “Protein Interaction Networks by Proteome Peptide Scanning” (PLoS Biology, 2004)

T1: Abp1 SH3 (ABP1_YEAST), P15891
T1 chain: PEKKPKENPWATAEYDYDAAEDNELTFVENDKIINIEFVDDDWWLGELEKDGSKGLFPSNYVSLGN


Molecular target: T1, Abp1 SH3 (ABP1_YEAST), P15891
Assay: SPOT array

normalised SPOT signal, Boehringer light units (BLU); mean over the file's lines of this peptide | Binder
62.3 | YEATPFDPITVKP [YNL330C 3-15]
112 | VVSSKGTSTYPVKP [YJR105W 266-279]
146 | VVVMSTSDERPFRP [YGL165C 142-155]
214 | VSSQPSLPRTLKP [YPL019C 812-824]
208 | YKPWSAWSYLPPKP [YDL035C 229-242]
1300 | YKWTVPAPVGPRP [YHR158C 222-234]
100 | YAEILKNRMNPEKP [YBL034C 847-860]
461 | VSFDLKTPLRAKP [YMR092C 479-491]
145 | YTNMNSLVATPMKP [YHR015W 541-554]
86.6 | VVVEFSSPNIAKP [YHR091C 181-193]
135 | VYYVSKAKLQPAKP [YAR007C 254-267]
113 | YEHLTSVKIVPQRP [YAL054C 40-53]
107 | VSHGDLNLINPMRP [YOL042W 270-283]
615 | VVRIKGINKIPPKP [YGL076C 86-99]
78 | WDGVIPTPAIIKP [YDL140C 556-568]
223 | YNPYGISPNHARP [YJR059W 184-196]
3200 | YKWTIPQPIGRRP [YGR238C 182-194]
29.6 | VWYISYGEWGPRRP [YNL052W 72-85]
532 | YTPTSSQPRPPPRP [YGR268C 67-80]
34.2 | YASALKEMTHPIKP [YLR239C 24-37]

normalised SPOT signal, Boehringer light units (BLU); mean over the file's lines of this peptide | Binder
1090 | WTLNKDKIAHPVRP [YBR276C 624-637]
179 | YASPMYDFLYPFRP [YOR002W 18-31]
40.3 | VVDIEVPMEYPFKP [YDR177W 53-66]
135 | WSIKLWDLSKPSKP [YAR003W 94-107]
15.5 | YNESAPLQPFPERP [YFL041W 454-467]
39.9 | VSHYHYGVKHPMKP [YGL194C 36-49]
304 | YFTSSYFPDDRRP [YKL004W 102-114]
155 | YQKTFKLPWDPRP [YBL086C 310-322]
8030 | YPQMLALPIARRP [YBL022C 179-191]
275 | YNYSFQFDKFPRKP [YLR392C 110-123]
56.1 | VSSSEIESVEPLKP [YMR219W 1122-1135]
77.3 | VSSSSTIPVLPKP [YJL201W 369-381]
88.1 | VTDLIKFPLMDKP [YNR011C 599-611]
64 | YRLLRLLPHASRP [YOR267C 685-697]
93 | VVDGNLAHETPVKP [YGR188C 429-442]
140 | YDNKVEEGSKPKKP [YOR168W 668-681]
311 | YFPSKTVGSHPRKP [YPL162C 135-148]
37 | YDVIEVVPEPGKP [YDR301W 1057-1069]
114 | YKVYFSTPRDVKP [YBR024W 225-237]
138 | YRVYFSTPPNVKP [YBR037C 219-231]

normalised SPOT signal, Boehringer light units (BLU); mean over the file's lines of this peptide | Binder
179 | YLNESFVMQQPIKP [YGR067C 417-430]
324 | WSRHFFLPRSKRP [YBL012C 87-99]
66.3 | WIRSTLNHIIPRRP [YML061C 4-17]
201 | WRSKRIEQLFPVRP [YDL150W 191-204]
793 | VSSTGSKSGPPPRP [YNL138W 345-358]
118 | YIRNAVKENFPEKP [YBR137W 45-58]
140 | YTDNDDYPELDRP [YOR292C 157-169]
1240 | WRYLPAPPVSIRP [YOR116C 258-270]
2600 | VVRTSKHWVLPPRP [YKL109W 62-75]
164 | YKDSFYKEMTPSKP [YOR177C 24-37]
93.8 | VVYFSSIPPYMKP [YNR054C 115-127]
326 | VSRFYQIPGTHRP [YBR235W 2-14]
79 | VTDFNYTPSHQKP [YIL106W 99-111]
5240 | VSLHLVRKVAPTKP [YHR070W 474-487]
70.4 | YVTFTTIPYKEKP [YCL058C 12-24]
812 | VTKRPATSTPPRKP [YJR043C 299-312]
98 | VRRKPHSPNKKKP [YDR223W 11-23]
1840 | YSRQAIPPPVPNRP [YLR144C 3-16]
